For data set [1], the target named is T1, CmrR (Clostridioides difficile R20291) (UniProt A0A9R0CG09).
T1 sequence: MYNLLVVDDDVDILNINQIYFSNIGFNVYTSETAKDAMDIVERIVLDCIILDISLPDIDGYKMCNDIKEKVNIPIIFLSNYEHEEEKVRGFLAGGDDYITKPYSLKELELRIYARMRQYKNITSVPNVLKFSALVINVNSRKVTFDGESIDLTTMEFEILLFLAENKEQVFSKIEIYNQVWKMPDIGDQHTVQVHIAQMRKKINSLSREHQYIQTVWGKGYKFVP
Description: EMSA. The settings on record: EMSA: 15 nM probe, 1x binding buffer 20 mM Tris pH 8, 1 mM EDTA, 10 mM MgCl2, 100 mM NaCl, 5% glycerol, plus half volume protein in His6 buffer (10 mM Tris …). On the technique in general: A gel shift assay detects complexes by their altered migration in electrophoresis.

Data set [2] has as its target CmrT fused to the smbit or lgbit portion of split luciferase (C. difficile two-hybrid) (Clostridioides difficile R20291). In words: split reporter (BiFC, NanoBiT); C. difficile bacterial two-hybrid with split luciferase (smbit, lgbit) from one ATc-inducible transcript; 200 ng/mL ATc for 1 h in BHIS-Tm10; Nano-Glo reagent; luminescence per OD600.
Data set [3] concerns the target CmrT-D9A fused to the smbit or lgbit portion of split luciferase (C. difficile two-hybrid) (Clostridioides difficile R20291). The description is as above.
Data set [4] deals with CmrT-K102A fused to the smbit or lgbit portion of split luciferase (C. difficile two-hybrid) (Clostridioides difficile R20291). The description is as above.

In PMC12548384 one finds binding, log10 fold luciferase activity over the negative control and log10 fold change of luciferase signal against wild-type CmrT (log10 fold change) data, which are given here for eight substances.

“ATTCAAGAATTGTTCAAAAATACTTAAGTATTATAGTCTAGTTTGTAAAGATATTATAAAATAATAATACTAGTTATATATGAAAATAAAACATTATAATTTGTAATAATTATAAAACTTGAGATTATGATTAAAATACCTTTGAATGGAGTGGTGTAATGTATAATTTACTGGTTGTAGATGATGATGTTG (double strand) [probe 4 (TSS4, 192 bp)]”: the binding result in data set [1] is “binds more weakly”.

In the case of “CTAGCCAATAGACAAGTTTCTAGAAAAATAATAAATTTATAAGTGAAAATGACTTTAAGCTCCATTCTCCAACAATCGGAGACTTTAATTAGTATTTAATAATAAATCTTAATGTTCAATACAATATTCAAGAATTGTTCAAAAATACTTAAG (double strand) [probe 9 (cmr switch in other orientation than probe 6)]”, the binding result in data set [1] is on record as “binds”.

“CmrT fused to the smbit or lgbit portion of split luciferase (C. difficile two-hybrid) (natural protein)” had a log10 fold luciferase activity over the negative control in data set [2] of 3.6 log10 fold.

With “CmrT-D9A fused to the smbit or lgbit portion of split luciferase (C. difficile two-hybrid) (natural protein)”, the log10 fold change of luciferase signal against wild-type CmrT (log10 fold change) in data set [3] was -1.27.

For the substance “CmrT-K102A fused to the smbit or lgbit portion of split luciferase (C. difficile two-hybrid) (natural protein)”, the log10 fold change of luciferase signal against wild-type CmrT (log10 fold change) in data set [4] is -0.64.

Regarding “GCCAAAATTTCACCTATCAATAAAAATCTTAACGACTAATACTCTTATTTTCAAATTTTGCAACATTTTTGTTAATTTTAAAGCAAAAAAAGACTATGCAATATAAAAATTATATTCATAGCCGGTTGCACCACTAACTCCATATATCTCC (double strand) [probe 2]”, in data set [1], the binding entry was “no binding”.

Regarding “GTATTTAATAATAAATCTTAATGTTCAATACAATATTCAAGAATTGTTCAAAAATACTTAAGTATTATAGTCTAGTTTGTAAAGATATTATAAAATAATAATACTAGTTATATATGAAAATAAAACATTATAATTTGTAATAATTATAAAACTTGAGATTATGATTAAAATACCTTTGAATGGAGTGGTGTAATGTATAATTTACTGGTTGTAGATGATGATGTTG (double strand) [probe 7 (TSS4, 226 bp)]”, in data set [1], the binding entry was “binds”.

On to “TTGCACCACTAACTCCATATATCTCCAGATGCCCAATAATAAGATATACTTCTCAGTTTCTAAAATATTTTTATTAAAAATCTTTTATATATTTTCATAAATTTCTTTTTTATTCTAACATTGTAATATTATTTTGTCAATATTTCCATATTTTTAGATATAAGATACTAAAATACCTATTTTATCTAAAGATATTTATATTTCTACATTCAATAATAGACAATACCCTGCAAGTTAAAGCATC (double strand) [probe 1 (upstream of TSS1)]”, for which, in data set [1], the binding entry is listed as “no binding”.
